From patent US20250312444A1 (BEIJING TUO JIE BIOPHARMACEUTICAL, published 2025) come the findings set out here.

Assay in all cases: cell-based or functional assay
Test [1] concerns the target T1, cynomolgus monkey RXFP1 receptor (cynomolgus monkey, UniProt H9ERA2 1-757 (rhesus entry)).
T1 sequence: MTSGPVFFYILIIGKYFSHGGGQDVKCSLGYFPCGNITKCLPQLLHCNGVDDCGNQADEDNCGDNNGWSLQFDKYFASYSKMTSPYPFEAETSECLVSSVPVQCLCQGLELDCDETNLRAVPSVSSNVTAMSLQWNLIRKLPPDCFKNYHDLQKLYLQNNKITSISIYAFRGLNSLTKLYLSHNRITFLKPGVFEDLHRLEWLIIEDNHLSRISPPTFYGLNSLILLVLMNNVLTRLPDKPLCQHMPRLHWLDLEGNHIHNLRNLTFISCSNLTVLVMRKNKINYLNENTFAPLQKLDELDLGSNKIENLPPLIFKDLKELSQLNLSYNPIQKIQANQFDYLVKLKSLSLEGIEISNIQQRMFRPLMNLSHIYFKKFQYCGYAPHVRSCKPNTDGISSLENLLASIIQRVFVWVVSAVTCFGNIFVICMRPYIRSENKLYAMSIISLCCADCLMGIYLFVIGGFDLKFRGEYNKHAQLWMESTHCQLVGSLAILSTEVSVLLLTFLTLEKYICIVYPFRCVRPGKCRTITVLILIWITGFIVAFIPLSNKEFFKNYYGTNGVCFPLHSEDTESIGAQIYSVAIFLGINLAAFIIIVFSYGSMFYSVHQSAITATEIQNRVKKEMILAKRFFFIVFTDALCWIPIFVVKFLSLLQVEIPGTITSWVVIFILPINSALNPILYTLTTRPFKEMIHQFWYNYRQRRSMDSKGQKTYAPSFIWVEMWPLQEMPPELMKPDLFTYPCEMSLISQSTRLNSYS

In the next test the target is T2, rat RXFP1 receptor (rat, UniProt Q6R6I6 1-758).
T2 sequence (looked up): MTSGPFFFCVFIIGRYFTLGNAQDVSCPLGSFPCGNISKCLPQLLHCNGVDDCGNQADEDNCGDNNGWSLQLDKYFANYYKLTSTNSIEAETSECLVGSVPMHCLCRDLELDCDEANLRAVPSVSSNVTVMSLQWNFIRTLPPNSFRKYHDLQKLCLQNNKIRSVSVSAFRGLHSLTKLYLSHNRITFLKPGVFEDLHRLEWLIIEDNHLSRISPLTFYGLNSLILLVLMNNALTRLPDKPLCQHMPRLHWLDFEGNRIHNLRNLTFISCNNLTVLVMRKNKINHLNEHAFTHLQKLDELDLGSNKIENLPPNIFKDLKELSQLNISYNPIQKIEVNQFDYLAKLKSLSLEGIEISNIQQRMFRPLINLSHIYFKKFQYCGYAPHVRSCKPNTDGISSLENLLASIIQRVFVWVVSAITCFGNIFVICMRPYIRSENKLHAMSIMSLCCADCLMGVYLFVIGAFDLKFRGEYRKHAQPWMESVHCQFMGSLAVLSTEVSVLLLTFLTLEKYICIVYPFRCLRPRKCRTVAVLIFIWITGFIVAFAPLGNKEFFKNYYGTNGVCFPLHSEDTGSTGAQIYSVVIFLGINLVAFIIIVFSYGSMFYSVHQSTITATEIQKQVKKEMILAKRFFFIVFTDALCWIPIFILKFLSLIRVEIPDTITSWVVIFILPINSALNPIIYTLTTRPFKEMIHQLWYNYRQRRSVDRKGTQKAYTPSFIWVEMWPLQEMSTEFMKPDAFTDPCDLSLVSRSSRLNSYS

The target in another test is T3, mouse RXFP1 receptor (mouse, UniProt Q6R6I7 1-758).
T3 sequence (looked up): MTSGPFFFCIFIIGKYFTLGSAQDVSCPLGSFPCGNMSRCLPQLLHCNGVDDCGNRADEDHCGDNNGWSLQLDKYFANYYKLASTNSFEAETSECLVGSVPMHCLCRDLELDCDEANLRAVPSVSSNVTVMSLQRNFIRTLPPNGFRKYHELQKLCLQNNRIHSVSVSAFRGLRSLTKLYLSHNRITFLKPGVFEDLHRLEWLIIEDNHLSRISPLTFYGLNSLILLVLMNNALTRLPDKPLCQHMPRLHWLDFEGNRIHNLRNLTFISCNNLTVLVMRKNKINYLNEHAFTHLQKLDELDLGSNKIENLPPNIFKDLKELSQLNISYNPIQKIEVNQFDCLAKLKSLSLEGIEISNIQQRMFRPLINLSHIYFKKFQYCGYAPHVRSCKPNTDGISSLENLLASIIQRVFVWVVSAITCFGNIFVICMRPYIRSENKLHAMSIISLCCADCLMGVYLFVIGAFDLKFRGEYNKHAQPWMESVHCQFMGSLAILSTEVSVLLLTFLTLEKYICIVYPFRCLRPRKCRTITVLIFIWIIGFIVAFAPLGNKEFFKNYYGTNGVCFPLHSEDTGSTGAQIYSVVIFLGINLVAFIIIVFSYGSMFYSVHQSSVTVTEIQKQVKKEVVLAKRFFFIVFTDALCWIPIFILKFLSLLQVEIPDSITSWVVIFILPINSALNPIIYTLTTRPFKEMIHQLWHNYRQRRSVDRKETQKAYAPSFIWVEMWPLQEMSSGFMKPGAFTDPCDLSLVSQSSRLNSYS

The next test deals with human RXFP2 receptor (human, UniProt Q8WXD0 1-754).

B1: 0051 (other)
chain: EVQLLESGGGLVQPGGSLRLSCAASGFTFLTSCMGWFRQAPGKEREGVSSIYTVGGSTFYTNSVKGRFTISRDNSKNTLYLQMNSLRAEDTAVYYCAAGSPARCRLRDPTTFDYWGQGTLVTVSSGGGGQGGGGQGGGGQGGGGQGGGGQSWMEEVIKLCGRELVRAQIAICGMSTWSGGGSGGSGGGQLYSALANKCCHVGCTKRSLARFC
notes: Single-chain fusion: anti-HSA VHH, linker, relaxin-2 B chain, linker, relaxin-2 A chain; also called fusion protein 0051; molecule 0051
B1: the “EC50 (nM), cAMP production in CHO-K1 cells with receptor overexpression” value in test [1] was found to be 25.1 nM; with rat RXFP1 receptor, 21.1 nM; with mouse RXFP1 receptor it was 21.7 nM; in the test with human RXFP2 receptor, 1250 nM.
